Assay results reported in patent publication US20240165255A1 (FRED HUTCHINSON CANCER CENTER, published 2024).

Target: folate receptor alpha (FOLR1) on MV4;11 FOLR1+ cells and on CBF/GLIS-transduced CB HSPCs (UniProt P15328 25-234, limits assumed)
Test: cell-based or functional assay

Sequence of folate receptor alpha (FOLR1) on MV4;11 FOLR1+ cells and on CBF/GLIS-transduced CB HSPCs (P15328 25-234 limits assumed): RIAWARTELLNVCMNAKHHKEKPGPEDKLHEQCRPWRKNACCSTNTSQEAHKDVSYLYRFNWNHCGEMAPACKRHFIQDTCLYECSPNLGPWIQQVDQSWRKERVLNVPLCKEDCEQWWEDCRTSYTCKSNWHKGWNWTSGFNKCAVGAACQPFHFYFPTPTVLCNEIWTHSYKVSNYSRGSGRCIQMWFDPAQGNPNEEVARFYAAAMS

B1: FOLR1-directed site-specific antibody-drug Conjugate P (IgG antibody with VH region SEQ ID NO: 362 and VL region SEQ ID NO: 367, conjugate formula P, n=4) (antibody, V domains shown)
VH: EVQLVESGGGLVQPGGSLRLSCAASGFNIRTQSIHWVRQAPGKGLEWIGDIFPIDGITDYADSVKGRFTISADTSKNTAYLQMNSLRAEDTAVYYCARGSWSWPSGMDYYLDYWGQGTLVTVSS
VL: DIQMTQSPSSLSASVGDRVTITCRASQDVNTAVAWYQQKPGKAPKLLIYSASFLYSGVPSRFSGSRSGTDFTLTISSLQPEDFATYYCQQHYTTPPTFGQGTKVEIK
modifications: para-azidomethylphenylalanine residues substituting for Y180 and F404 of each VH region (so in the source); heavy chain positions), conjugated according to conjugate formula P, n=4 (hemiasterlin drug-linker)
in vitro cytotoxicity IC50 (printed as '1050s') against CBF/GLIS-transduced CB HPSCs (which upregulate FOLR1): 4.2 nM | in vitro cytotoxicity IC50 (printed as '1050s') against MV4;11 AML cell line engineered to express FOLR1 (MV4;11 FOLR1+): 0.1 nM
